# Test results as given in patent US20170202953A1 (AGENCY FOR SCIENCE TECHNOLOGY AND RESEARCH, published 2017).
# T1: HBV envelope antigen (HBs370-79, genotype C) peptide on HLA-A*02:01 (human)
# T1 peptide: NILNPFLPLL
# T2: HBV envelope antigen (HBs370-79, genotype A/D) peptide on HLA-A*02:01 (human)
# T2 peptide: SIVSPFIPLL
# T3: HBV envelope antigen (HBs370-79, genotype B) peptide on HLA-A*02:01 (human)
# T3 peptide: NILSPFMPLL
# T4: HBV core antigen (HBc18-27, genotype B/C; 27I) peptide on HLA-A*02:06 (human)
# T4 peptide: FLPSDFFPSI
# T5: HBV core antigen (HBc18-27, genotype B/C; 27I) peptide on HLA-A*02:07 (human)
# T5 peptide: FLPSDFFPSI
# T6: HBV core antigen (HBc18-27, genotype B/C; 27I) peptide on HLA-A*02:01 (human)
# T6 peptide: FLPSDFFPSI
# B1: HBs370-79 TCR (TCR, V domains shown)
# Valpha: QKEVEQNSGPLSVPEGAIASLNCTYSDRGSQSFFWYRQYSGKSPELIMFIYSNGDKEDGRFTAQLNKASQYVSLLIRDSQPSDSATYLCAVNLYAGNMLTFGGGTRLMVKP
# Vbeta: GAGVSQSPRYKVAKRGQDVALRCDPISGHVSLFWYQQALGQGPEFLTYFQNEAQLDKSGLPSDRFFAERPEGSVSTLKIQRTQQEDSAVYLCASSSDFGNQPQHFGDGTRLSIL
# B2: HBc18-Opt-TCR (codon optimized HBc18-27 TCR, Vα3 / Vβ8.2) (TCR, V domains shown)
# V domain 1: SQQGEEDPQALSIQEGENATMNCSYKTSINNLQWYRQNSGRGLVHLILIRSNEREKHSGRLRVTLDTSKKSSSLLITASRAADTASYFCATWLSGSARQLTFGSGTQLTVLP
# V domain 2: DAGVIQSPRHEVTEMGQEVTLRCKPISGHDYLFWYRQTMMRGLELLIYFNNNVPIDDSGMPEDRFSAKMPNASFSTLKIQPSEPRDSAVYFCASSNRASSYNEQFFGPGTRLTVLE
# notes: also called codon optimized TCR; HBc18-Opt-Vα3 and HBc18-Opt-Vβ8.2
# B3: HBc18-27 TCR (TCR, V domains shown)
# Valpha: B2 V domain 1
# Vbeta: DAGVIQSPRHEVTEMGQEVTLRCKPISGHDYLFWYRQTMMRGLELLIYFNNNVPIDDSGMPEDRFSAKMPNASFSTLKIQPSEPRDSAVYFCASSNRASSYNEQFFGPGTRLTVL
# What was measured:
# [1] = biological target: T1, HBV envelope antigen (HBs370-79, …); assay: cytokine release
# [2] = biological target: T2, HBV envelope antigen (HBs370-79, …); assay: cytokine release
# [3] = biological target: T3, HBV envelope antigen (HBs370-79, …); assay: cytokine release
# [4] = biological target: T7, HBc18-27-HLA-A201 pentamer (PE-conjugated HLA-A2 class I pentamer bearing the HBc18-27 epitope, Proimmune) (Hepatitis B virus; human); assay: flow cytometry, pentamer staining of transduced lymphocytes; the filing puts the difference down to expression of the Vα3 chain
# T7 construct: also called HLA-A2 pentamer; HBc18-HLA-A201 pentamer
# Method: HBc18-27 transduced PBL were analyzed for Vβ8 expression and the ability to bind HBc18-HLA-A201 pentamers (Proimmune, Oxford, United Kingdom) by flow cytometry 3 days after transduction.
# The percentages of stained lymphocytes were determined by Fluorescence-activated cell sorting (FACS) analysis using a FACs Canto flow cytometer (BD Biosciences, SanDiego, Calif.) and analyzed using FACs Diva software (BD Biosciences).
# [5] = biological target: T4, HBV core antigen (HBc18-27, genotype …); assay: T cell clone or line
# [6] = biological target: T5, HBV core antigen (HBc18-27, genotype …); assay: T cell clone or line
# [7] = biological target: T6, HBV core antigen (HBc18-27, genotype …); assay: T cell clone or line
binder,measurement,setting,value
B1,binding result,[1],recognises
same,binding result,[2],recognises
same,binding result,[3],recognises
B2,fold frequency of pentamer positive cells against HBc18-WT-TCR,[4],2 fold
B3,peptide concentration still recognised,[5],≤ 1 pM
same,peptide concentration still recognised,[6],≤ 1 pM
same,peptide concentration still recognised,[7],≤ 1 pM
